Data published in patent US20180037631A1 (Bristol-Myers Squibb, published 2018).
Residue numbers refer to the chain shown, from its start.

B1: E11 (designed binder)
10Fn3 domain: MGVSDVPRDLEVVAATPTSLLISWTPANKSYQYYRITYGETGGNSPVQEFTVPYDGTTATISGLKPGVDYTITVYAVTDHKPHADGPHTYHEYPISINYRTEIDKPSQ
B2: E16 (designed binder)
10Fn3 domain: B1 10Fn3 domain with T25Q, P26V, A27P, N28R, K29P, S30M, G56L, T57V, Y93S
B3: E14 (designed binder)
10Fn3 domain: MGVSDVPRDLEVVAATPTSLLISWQVPRPMYQYYRITYGETGGNSPVQEFTVPYDVTTATISGLKPGVDYTITVYAVTDSYNPATHEYKYHQTPISINYRTEIDKPSQ
B4: E12 (designed binder)
10Fn3 domain: B3 10Fn3 domain with Y54H, T57Y
B5: E13 (designed binder)
10Fn3 domain: B3 10Fn3 domain with Y54G, D55Q, T57Y
B6: E6 (designed binder)
10Fn3 domain: B3 10Fn3 domain with T57Y
B7: E7 (designed binder)
10Fn3 domain: B3 10Fn3 domain with T57H
B8: E8 (designed binder)
10Fn3 domain: B3 10Fn3 domain with V56L
B9: E9 (designed binder)
10Fn3 domain: B3 10Fn3 domain with Q25E, V26A, P27N, R28P, P29S, M30R, Y54H, V56L, T57N
B10: E15 (designed binder)
10Fn3 domain: B3 10Fn3 domain with Y54H, V56L, T57R
B11: E10 (designed binder)
10Fn3 domain: MGVSDVPRDLEVVAATPTSLLISWYPGSRTYQYYRITYGETGGNSPVQEFTVPGGVRTATISGLKPGVDYTITVYAVTDYYHPATYEHEYHAHPISINYRTEIDKPSQ
B12: E17 (designed binder)
10Fn3 domain: MGVSDVPRDLEVVAATPTSLLISWQVPRPMYQYYRITYGETGGNSPVQEFTVPGMVHTATISGLKPGVDYTITVYAVTDHKPHADGPHTYHESPISINYRTEIDKPSQ
B13: E23 (designed binder)
10Fn3 domain: MGVSDVPRDLEVVAATPTSLLISWQVPRPMYQYYRITYGETGGNSPVQEFTVPYDVITATISGLKPGVDYTITVYAVTDMMHVEYAEYPISINYRTEIDKPSQ
B14: E22 (designed binder)
10Fn3 domain: B3 10Fn3 domain with Q25S, V26T, P27G, P29T, M30T, Y54H, V56L, T57D
B15: E24 (designed binder)
10Fn3 domain: B3 10Fn3 domain with Y54G, D55Q, T57P
B16: E25 (designed binder)
10Fn3 domain: MGVSDVPRDLEVVAATPTSLLISWGYQSGGYTYYRITYGETGGNSPVQEFTVPHDLRTATISGLKPGVDYTITVYAVTDYAYKEYQEHPISINYRTEIDKPSQ

target: T1, EGFR on the surface of human tumour cells (A431, H292) (human, UniProt P00533 25-1210); assay: cell-based or functional assay

| % inhibition of EGFR phosphorylation at 100 nM binder, cell-based assay [%] | Binder |
| --- | --- |
| 83.7 | B1 |
| 97.7 | B2 |
| 80.4 | B3 |
| 76.5 | B4 |
| 86.7 | B5 |
| 80 | B6 |
| 89.4 | B7 |
| 92.4 | B8 |
| 77.3 | B9 |
| 88.8 | B10 |
| 84.7 | B11 |
| 75.5 | B12 |

target: T1, EGFR on the surface of human tumour …; assay: cell-based or functional assay; remark: another data set of the same source

| % inhibition of EGFR phosphorylation at 100 nM binder, cell-based assay [%] | Binder |
| --- | --- |
| 81.1 | B13 |
| 83.7 | B14 |
| 90.3 | B15 |
| 77.1 | B16 |
